Assay: yeast display, Sf9 membrane polyspecificity reagent, FACS + sequencing; frameworks hold sequencing errors
Procedure, shortened: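 Sorting gates, low and high (top ~1%), were placed on anti-HA fluorescence to track expression and on streptavidin fluorescence to track reagent binding. A clone's polyreactivity label is taken from the gate it came out of. The reagent was 10% biotinylated, detergent-solubilized Sf9 membrane, applied for 1 hour at 4 °C to galactose-induced yeast display cells.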

Sequence | polyreactivity (PSR sort gate)
QVQLVESGGGLVQAGGSLRLSCAASGSIIHVNAMGCYRQAPGKERELVAGISDGGSTYYADSVKGRFTISRDNAKYTVYLQMNSLKPEDTAVYYCAAESEQWYSYVLSYDWEYDYWGQGTQVTVSS | low polyreactivity
QVQLVESGGGLVQAGGSLRLSCAASGSIFGFYAMGWYRQAPGKEREFVASISDSSGSTYYADSVKGRFTISRDNAKNTVYLQMNSLKPEDTAVYYCNARVNYRWPYSWRYYWGQGTQVTVSS | high polyreactivity
QVQLVESGGGLVQAGGSLRLSCAASGFTFRSYTMGWYRQAPGKERELVAAITSGGSTYYADSVKGRFTISRDNAKNTVYLQMNSLKPEDTAVYYCAVTYRWHTFIYDYWGQGTQVTVSS | low polyreactivity
QVQLVESGGGLVQAAGSLRLSCAASGRTFKVYAMGWYRQAPGKERELVAAITWRGGRTYYADSVKGRFTISSDNAKNTVYLQMNSLKPEDTAVYDCAADLYYLTHDYWGQGTQVTVSS | high polyreactivity
QVQLVESVGGLVQAGGSLRLSCAASGRTFRKYAMGWYRQAQGKERELVASITYSGGSTYYADSVKGRFTISRDNAKNTVYLQMNSLKPEDTAVYYCAARLHWIRYPQTLYDYWGQGTQVTVSS | high polyreactivity
QVQLVESGGGLVQAGGSLRLSCASSGFTLYGYTKGWYRQAPGKERELVAAISGSGGRTYYADSVKGRFTISRDNAKNTVYLHMNTLKPEDNAVYYCAADSRGTCDGYDYWGQGTQVTVSS | high polyreactivity
QFQLVESGGGLVQAGGSLRLSCAASGYIFYGYVMGWYRQAPGKERELVAGITYSGGGGTHYADSVNGRFTISRDNAKNTVYLQMNSLKPEDTAVYYCAKADPQLNRTYYSYGMDYWGHGTQVTVSS | low polyreactivity
QVQLVESGGGLVQAGGSLRLSCAASGRTFKPYTMGWYRQAPGKERELVATISTGTTSTYYADSVKGRFTISRDNAKNTVYLQMNSLKPEDTAVYYCAADSDSPVTYQSEDALEYWGQGTQVTVSS | low polyreactivity
QFQLVESGGGLVQAGCSLRLSCAASGRTVGSNDMGWYRQAPRKEMDLFAAIPTTTASTNYADSVKGRFTISRDNAKNTVYFQMNSLKPEDNAVYYCNKQYLWYYWDGTDAEDYWGQGTQVTVSS | low polyreactivity
QVQLVESGGGLVQAGGSLRLSCAASGRTFWSNAMGWYRQAPGKERELVATISSGGGNTYYADSVKGRFTISRDNAKNTVYLQMNSLKPEDTAVYYCAATKYRWTYAASFGYWGQGTQVTVSS | high polyreactivity
QVQLVESGGGLVQAGGSLRIICAASGRIFTFYAMGWYRQATGKARELVASIRSSTYYADSVKGRFTISRDNAKYTVYLQMNSLKPEDTALYYCNVRLSYSYISPSDWNFDYWGQGTQVTVSS | low polyreactivity
QVQLEESGGGLVQAGGSLRLSCAASGSTFKYYAMGWYRQAHGKERELVAAISRRGGSTYYADSVKGRFTISRDNAKNTVYLQMNSLKPEDTAVYYCAADIIRPVTVDYWGQGTQVTVSS | high polyreactivity
QVQLVESGGGLVQAGGSLRLSCAASGSIFPFYAMGWYRQAPGKERELVAGISGSAGRTYYADSVKGRFTISRDNAKNTVYLQMNSLKPEDTAVYYCAAVYYSSLYDYWGQGTQVTVSS | high polyreactivity
QVQLQESGGGLVQAGGSLRPSCAASGSISDGVPKGWYRQAPGEERELVATTVLGATTNYADSVKGRFTISRGNAKNTVYLQMNSLKPEETAVYYCAAPLRYDKGFSYWGQGTQVTVSS | low polyreactivity
QVQLVESGGGLVQAGGSLRLSCGAYGRTFRLYAMGWYRQAPAKERELVAAITRGGRTTYADSVKGRFTSSRDNAQNTVYLQMNSLKPEDTAVYYCAARYVERQTDYYYWGQGTQVTVSS | low polyreactivity
QVQLVESAGGLVQAGGSLRLSCAASGNMLIGKVMGMYRQAPGKERELVAAITSGGDTYYADSVKGRYTISRDNAKNTVYLQMNSLKPEDTAVYYCAADRPGQPKYEYWGQCTQVTVSS | low polyreactivity

Sequence | polyreactivity (PSR sort gate)
QVKLVESGRGLVQAGGSLRLSCAASGFTFRYYGMGWYRQAPGKERELVASITASGVSTSYADSVKGRFTISRDNAKNTVYLQMNSLKPEDTAVYYCNAVVGAWSLFDYWGQGTQVTVSS | high polyreactivity
QVQLVESGGGLVQAGGSLRLSCAASRITFRFYAMGWSRQAPGKERELVAVISRGGGTTYYADSVKGRFTISRDNAKNTVYLQMNSLKPEDTAVYYCNAVIAWYRSDEYDYWGQGTQVTVSS | high polyreactivity
QVQLVESGGALVQAGGSLRLSCAASGSTFYRNAMGWYRPAPGKERELVATISSSDGSTYYADSVKGRFTISRDNAKNTVYVQMNSLKPEDTAVYYCNADPISSGSVANFQYDYCGQGTQVTVSS | low polyreactivity
QVQIVESGGGLVQAGGSLRLSCAASGRTTSTNAMGWYRQAPGKERELVASISWRGGSTYYADSVKGRFTISRDNAKNTVYLEMNCLKPEDTAVYYCAASWPRWWRFGYWGQGTQVTVSS | low polyreactivity
QVQLVESGGGLVQAGGSLRLSCAASGSTSSTYSMGWYRQAPGKERELVATINWDGASTYYADSVKGRFTISRDNAKNTVYLQMNSLIPEDTAVYYCAAQSGAVHFLEDDYWGHGTQVTVSS | low polyreactivity
QVQLVESGGGLVQEGGSLRLSCAASGLIFGENAMGWYRQAPGKERELVAAISRRAGITYYADSVKGRFTISRDNAKNTVYLQMNSLKPVDTAVYYCAARKGAISSPYDYWGQGTQVTVSS | high polyreactivity
QVQLVESGGGLVQAGGSLRLSCAASGSIFDWYAMGWYRQAPGKEGELVAAISSGDSTYYADSVKGRFTISRDNAKNTVYLQMNSLKPEYTAVYYCAAVTKLSGIRYNYWGQGTQVTVSS | low polyreactivity
QVQLVESGGGLVQAGGSLRLSCAASGNTFYYYAMGWYRQAPGKERELVASITSTARTYYADSVKGRFTISRDNAKNTVYLQMNSLKPEDTAVYYCNAKEHYATRSDSWGEGTQVTVSS | high polyreactivity
QVQLVESGGGLVQAGGSLRLSCAASGSIFSDYTMGWYRQAPGKERELVAAISGIGGSTYYADSVKGRFTISRDNAKNTVYLQMNSLTPEDTAVYYCAPDDYYYPYFSHDYWGQGTQVTVSS | low polyreactivity
QVQLVESGGGLVQAGGSLRLSCAASGLTLRYYVMGWNSQAPGKERELVAAISSGGGSTYYADSVKGRFTISRDNAKNTVYLQMNSRKPEDTAVYYCAADSVSRYNGYDYWGQGTQVTVSS | high polyreactivity
QVLLVESGGGLVQAGGSLRISCAASVRIVKSYAMGWYRQAPGKESELVAAISRGGRTNYADSVKGRFTISRDNAKNTVYLQMNSLKPEDTAVYYCAARFITPYDHYGYWGQGTQVTVSA | high polyreactivity
QVQLVESGGGLVHAGGSLRLSCAASGLTFYRYAMGWYRQAPGKERELVAAIRSNVVTTYYADSVKGRFTISRDNAKNTVYLQMNSLKPEDTAVYYCAARFGRSAQPGYDYWGQGTQVTVSS | high polyreactivity
QVQLVESGGGLVQAGGSLRLSCAASGRTFVYNAMGWYRPAPGKERELVAAIDGGGDRTYYADSVKGRFTISRDNAKNTVYLQMNSLKPEDTAVYYCARDPGDTYYYSYPEGDYWGQGTQVTVSS | low polyreactivity
QVQLVESGGGLVQAGGSLRLSCAASGLTFDVYTMVWYRQAPGKERELVATISETYYADSVKGRFTISRDNAKNTVYLQMNSLKPEDTAVYYCAANGFKAQYRDIVYDYGYWGQGTQVTVSS | low polyreactivity
QVQLVESGGGLVQAGGSLRLSCAASGSIFRPYTMGWYRQAPGKERELVAAITGSGGSTYYADSVKGRFTISRDNAKNTVYLQMNSLKPEDTAVYYCNAGWRVWGYSGSYYWFNYWGQGTQVTVSS | high polyreactivity

— the nanobody polyreactivity screen of Harvey et al. (2022)
